Experimental data from patent US20240383985A1 (published 2024).

T1: CS1-Fc (UniProt Q9NQ25 23-226)
T1 chain: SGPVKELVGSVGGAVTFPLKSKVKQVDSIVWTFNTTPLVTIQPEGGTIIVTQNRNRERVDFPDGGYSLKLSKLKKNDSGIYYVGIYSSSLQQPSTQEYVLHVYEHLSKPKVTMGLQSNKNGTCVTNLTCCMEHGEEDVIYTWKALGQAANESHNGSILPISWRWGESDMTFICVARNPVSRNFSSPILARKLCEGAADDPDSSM


Columns and labels:
[1] = biological target: T2, CD38 naturally expressed on Daudi cells (human, UniProt P28907 1-300); test: FACS; FIG. 23
[2] = biological target: T2, CD38 naturally expressed on Daudi cells; test: FACS; FIG. 24
[3] = biological target: T1, CS1-Fc; test: ELISA

Binder | EC50 [1] | EC50 [2] | EC50 [3]
CS1/CD16A/IL-15 trifunctional fusion protein QP7434262 (FC wildtype) (bispecific antibody) chain 1: not shown chain 2: not shown light: DIQMTQSPSSLSASVGDRVTITCKASQDVGIAVAWYQQKPGKVPKLLIYWASTRHTGVPDRFSGSGSGTDFTLTISSLQPEDVATYYCQQYSSYPYTFGQGTKVEIKRTVAAPSVFIFPPSDEQLKSGTASVVCLLNNFYPREAKVQWKVDNALQSGNSQESVTEQDSKDSTYSLSSTLTLSKADYEKHKVYACEVTHQGLSSPVTKSFNRGEC heavy: EVQLVESGGGLVQPGGSLRLSCAASGFDFSRYWMSWVRQAPGKGLEWIGEINPDSSTINYAPSLKDKFIISRDNAKNSLYLQMNSLRAEDTAVYYCARPDGNYWYFDVWGQGTLVTVSSASTKGPSVFPLAPSSKSTSGGTAALGCLVKDYFPEPVTVSWNSGALTSGVHTFPAVLQSSGLYSLSSVVTVPSSSLGTQTYICNVNHKPSNTKVDKKVEPKSCDKTHTCPPCPAPELLGGPSVFLFPPKPKDTLMISRTPEVTCVVVDVSHEDPEVKFNWYVDGVEVHNAKTKPREEQYNSTYRVVSVLTVLHQDWLNGKEYKCKVSNKALPAPIEKTISKAKGQPREPQVYTLPPSREEMTKNQVSLSCAVKGFYPSDIAVEWESNGQPENNYKTTPPVLDSDGSFFLVSKLTVDKSRWQQGNVFSCSVMHEALHNRYTQKSLSLSPGKGGSHHHHHH | – | – | ~0.839 µg/mL
CS1/CD16A/IL-15 trifunctional fusion protein QP43394342 (FC with L234A/L235A mutation for eliminating function) (bispecific antibody) chain 1: not shown chain 2: not shown light: DIQMTQSPSSLSASVGDRVTITCKASQDVGIAVAWYQQKPGKVPKLLIYWASTRHTGVPDRFSGSGSGTDFTLTISSLQPEDVATYYCQQYSSYPYTFGQGTKVEIKRTVAAPSVFIFPPSDEQLKSGTASVVCLLNNFYPREAKVQWKVDNALQSGNSQESVTEQDSKDSTYSLSSTLTLSKADYEKHKVYACEVTHQGLSSPVTKSFNRGEC heavy: EVQLVESGGGLVQPGGSLRLSCAASGFDFSRYWMSWVRQAPGKGLEWIGEINPDSSTINYAPSLKDKFIISRDNAKNSLYLQMNSLRAEDTAVYYCARPDGNYWYFDVWGQGTLVTVSSASTKGPSVFPLAPSSKSTSGGTAALGCLVKDYFPEPVTVSWNSGALTSGVHTFPAVLQSSGLYSLSSVVTVPSSSLGTQTYICNVNHKPSNTKVDKKVEPKSCDKTHTCPPCPAPEAAGGPSVFLFPPKPKDTLMISRTPEVTCVVVDVSHEDPEVKFNWYVDGVEVHNAKTKPREEQYNSTYRVVSVLTVLHQDWLNGKEYKCKVSNKALPAPIEKTISKAKGQPREPQVYTLPPSREEMTKNQVSLSCAVKGFYPSDIAVEWESNGQPENNYKTTPPVLDSDGSFFLVSKLTVDKSRWQQGNVFSCSVMHEALHNRYTQKSLSLSPGKGGSHHHHHH | – | – | 1.77 µg/mL

Continued, values first:

EC50 [1] | EC50 [2] | EC50 [3] | Binder
10.2 nM | 8.56 nM | – | QP42764325 (antibody) chain 1: DIQMTQSPSSLSASVGDRVTITCKASQDVGIAVAWYQQKPGKVPKLLIYWASTRHTGVPDRFSGSGSGTDFTLTISSLQPEDVATYYCQQYSSYPYTFGQGTKVEIKRTVAAPSVFIFPPSDEQLKSGTASVVCLLNNFYPREAKVQWKVDNALQSGNSQESVTEQDSKDSTYSLSSTLTLSKADYEKHKVYACEVTHQGLSSPVTKSFNRGEC chain 2: EVQLVESGGGLVQPGGSLRLSCAASGFDFSRYWMSWVRQAPGKGLEWIGEINPDSSTINYAPSLKDKFIISRDNAKNSLYLQMNSLRAEDTAVYYCARPDGNYWYFDVWGQGTLVTVSSASTKGPSVFPLAPSSKSTSGGTAALGCLVKDYFPEPVTVSWNSGALTSGVHTFPAVLQSSGLYSLSSVVTVPSSSLGTQTYICNVNHKPSNTKVDKKVEPKSCDKTHTCPPCPAPEAAGGPSVFLFPPKPKDTLMISRTPEVTCVVVDVSHEDPEVKFNWYVDGVEVHNAKTKPREEQYNSTYRVVSVLTVLHQDWLNGKEYKCKVSNKALPAPIEKTISKAKGQPREPQVYTLPPSREEMTKNQVSLSCAVKGFYPSDIAVEWESNGQPENNYKTTPPVLDSDGSFFLVSKLTVDKSRWQQGNVFSCSVMHEALHNRYTQKSLSLSPGK chain 3: not shown chain 4: not shown
8.99 nM | – | – | QP42764279 (antibody) chain 1: DIQMTQSPSSLSASVGDRVTITCKASQDVGIAVAWYQQKPGKVPKLLIYWASTRHTGVPDRFSGSGSGTDFTLTISSLQPEDVATYYCQQYSSYPYTFGQGTKVEIKRTVAAPSVFIFPPSDEQLKSGTASVVCLLNNFYPREAKVQWKVDNALQSGNSQESVTEQDSKDSTYSLSSTLTLSKADYEKHKVYACEVTHQGLSSPVTKSFNRGEC chain 2: EVQLVESGGGLVQPGGSLRLSCAASGFDFSRYWMSWVRQAPGKGLEWIGEINPDSSTINYAPSLKDKFIISRDNAKNSLYLQMNSLRAEDTAVYYCARPDGNYWYFDVWGQGTLVTVSSASTKGPSVFPLAPSSKSTSGGTAALGCLVKDYFPEPVTVSWNSGALTSGVHTFPAVLQSSGLYSLSSVVTVPSSSLGTQTYICNVNHKPSNTKVDKKVEPKSCDKTHTCPPCPAPEAAGGPSVFLFPPKPKDTLMISRTPEVTCVVVDVSHEDPEVKFNWYVDGVEVHNAKTKPREEQYNSTYRVVSVLTVLHQDWLNGKEYKCKVSNKALPAPIEKTISKAKGQPREPQVYTLPPSREEMTKNQVSLSCAVKGFYPSDIAVEWESNGQPENNYKTTPPVLDSDGSFFLVSKLTVDKSRWQQGNVFSCSVMHEALHNRYTQKSLSLSPGK chain 3: not shown chain 4: not shown
